Laboratory results reported in the nanobody polyreactivity screen of Harvey et al. (2022).

Assay: yeast display, Sf9 membrane polyspecificity reagent, FACS + sequencing; frameworks hold sequencing errors
Summary of the method: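 Synthetic nanobody libraries on Saccharomyces cerevisiae BJ5465 were galactose-induced for 36–48 hours, stained 1 hour at 4 °C with 10% biotinylated, detergent-solubilized Sf9 membrane reagent and enriched on streptavidin microbeads. FACS then separated cells into low and high (top ~1%) gates by anti-HA (expression) and streptavidin (reagent binding) fluorescence. Genes were colony-PCR amplified, MiSeq 2 × 250 sequenced and CDR-length filtered. A clone's polyreactivity label is that of its gate of origin.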

Sequence	polyreactivity (PSR sort gate)
QVQLVESGGGLVQAGGSLRLSCAASGFTFGANVMGWYRQAPGKERELVAGITWSGDSTYYADSVKGRFTISRDNAKNTVYLQMNSLKPDDTAVYYCAADVYDGEYILDYDYWGQGTQVTVSS	low polyreactivity
QVQLVESGGGLVQAGGSLRLSCAASGSTFSYAMGWYRQAPGKERELVAAITTSGGSTYYADSVKGRFTISRDNAKNTVYLQMNSLKPVDTAVDYCARERYYRRFYRPRRYDYWGQGTQVTVSS	low polyreactivity
QDQHVESGGGLVQAGGSLRLSCAASGFIFSQYAMGWYRQAPGKERELVAAISSGSTYADSVKGRFTISRDNAKNTVYLQMNSLKPEDTAVYYCAVDYHQAWPSADYWFEYDYWGQGTQVTVSS	low polyreactivity
QVQLVESGGGLVQAGGSLRLSCAASGRTFRAYALGWYRQAPGKERELVARISWSGGNTYNADSVKGRFTISRDHAKNTVYLQMNSLKPEDTAVYYCAKTYYPYPAQIYTGYSWGQGTQVTVSS	low polyreactivity
QVHLVESGGGLVQAGGSLRLSCAASGRIFGFYAMALYRQSPGKEREFVASISVRGASTYADSVKGRFTISRDNAKNTVYLQMNSLKPEDTAVYYCNAYGRVSKRYGYWGQGTQVTVSS	high polyreactivity
QVQLVESGGGLVQAGGSLRLSCAASGSTFSRYTMGWYRQAPGKERELVAAITWSGGRTYYADSVKGRFTISRDNAKNTVYLQMNSLKPEDTAVSYCNVDSSRYSGYDYWGQGTQVTVSS	high polyreactivity
QVQLVESGGGLVQAGGSLRLSCAASGSTFGVYAMGWYRQAPGKERELVAAISGSGAGTYYADSVKGRFTISRDNAKNTVYLQMNSLKPEDTAVYYCAAETYYSIYDYWGQGTQVTVSS	high polyreactivity
QVQLVESGGGLVQAGGSLRLSCAASGSTFGYYAMGWYRQAPGKERELVAAISGSGTSTYYADSVKGRFTISRDNAKNTVYLQMNSLKPEDTAVYYCATRYRYTGCGYWGQGSQVTVSS	low polyreactivity
QVQLVESGGRLVQAGGSLSLSCAASGRTFHGYAMGWYRQAPGKERELVARINWSDGRTYYADSVKGRFTISRDNAKNTDYLQMNSLKPEDTAVYYCAADKTVSYAPAWYYYWGQGTQVSVSS	low polyreactivity
QVQLVESGGGILQAGGSLRLSCAASGSIFGGNAMGWYRQAPGKERELVAAITSTVSTNYADSVKGRFTISRDNAKNTVYLQMNSLKPEDTAVYYCANDTSNVEGDYWGQGTQVTVSS	low polyreactivity
QVQLVESGGGLVQAGGSLRLSCAASGFTFSTYAMGWYRQAPGKERELVAGITRRGGSTYYADSVKGRFTISRDNAKNTVYLQMNSLKPEDTAVYYCARDLLRVSSSRYNSWGQGTQVTVSS	high polyreactivity
QVQLVESGGGLVQAGGSIRLSCAASGSTFRLYARGWYRQAPGKEREFVAAISFRGGSTYYADSVKGRFTISRDYSKNTVYLQMNSLKPEDTAVYYCNADYYYYYSWFNYWGQGTQVTVSS	high polyreactivity
QVQLVESGGGLVQAGGSLRLSCAASGFILNFYAMGWYRQAPGKERELVAAISTSGGSTYYADSVKGRFTISRDNAKNTVYLQMNSLKPEDTAGYYCAARRARTYHTSSGYRGYYYWGQGTQVTVSS	high polyreactivity
QVQLVESGGCLVQAGGSLRLSCAASGGTFVTYAMGWYRQAPGKERELVAAITTGGSTYYADSVKGRFTISRDNAKNTVYLQMNSLKPEDSAVYYCAAVYTGSGKRYYKGYYWGQGTQVTVSS	low polyreactivity
QVQLVESGGGLVQAGGSLRLSCAASGFIFQYYAMGWYRQAPGKERELVAAISFSGGSTYYADSVKGRFTISRANAKNTVYLPMNSLKPEDTAVYYCAAEVYSGGDYSGHDYYWGQGTQVTVSS	low polyreactivity
QVQLVESGGGLVQAGGSLRLSCAASGFTYLRYAMGWYRQAPGKERELVAAISFSGDTTNYADSVKGRFTISRDNAKNTVYLQMNSLKPEDTAVYYCAASYGGGYYSDRGYYYWGQGTQVTVSS	low polyreactivity
QVQLVESGGGLVQAGGSLRLSCADSGRIFFKYAMGWYRQAPGKERELVASISRRGGSTTYADSVKGRFTISRDNAKNTVYLQMNSLKPEDTAVYYCNTVSWWGRNYQDEYYYWGQGTQVTVSS	high polyreactivity
QVQRVESGGGLVQAGGSLRLSCAASGFIFDDKAMGWYRQAPGKERELVAAITSGGGSTYYADSVKGRFTISRDNAKNTVYLQMNSLKPEDTAVYYCNAVPSQHDEFDYWGQGTQVTVSS	low polyreactivity
QVQLVESGGGLVQAGGSLRLSCAASGFTFLNNTMGWYRQAPGKERELVAAITSSGDRTYYADSVKGRFTISRDNAKNTVYLQMNSLKPEDTAVYYCAADWAYYVASYLYYTFDYWGQGTQVTVSS	low polyreactivity
QVQLVESGGGLVQAGGSLRLSCAASGITFYGYAMGWYRQAPGKERELVAAISRSGGSTYYADSVKGRFTISRDHAKNTVYVQMNSLKPEDTAVYYCNTDYGSSYNYWGQGTQVTVSS	high polyreactivity
QVQLEESGGGLVQAGGSLRLSCASSGYIFATYAMGWYRQAPGKERELVAAITSTGSTYYADSVKGRFTISRDNAKNTVYLQMNSLKPEDTAVYYCAAVSGYRARYYLYYYWGQGTQVTVSS	high polyreactivity
QVQLVESGGGLVQAGGSLRLSCAASGSIFPGYAMGWYRQAPGKERELVAGITWSDARTYYADSVKGRFTISRDNAKNTVYLQMNCLKPEDTAVYYCAADYYYYELDYWGKGTQVTVSS	low polyreactivity

Sequence	polyreactivity (PSR sort gate)
QVQLVESGGGLVQAGGTLRLSCAASGRTFNAYPMGWYRQAPGKERELVAAITSSGTSTYYADSVKGRFTISRDNAKNTVYLQMNSLKPEDTAVYYCAAPWGYWGQCTQVTVSS	low polyreactivity
QVQLVESGGGLVQAGGSLRLSCAASGSTFYVNAMGWYRQTPGKERELVATIPSGSITDYADSVKGRFTISRDNAKNTVYLQMNSLKPEDTAVYYCAKTYVQEHGVDYWGQGTQVTVSS	low polyreactivity
QVQLVESGGGLVQAGGSLRLSCAASGIIFTYYAMGSYRQAPGKERELVAAISSRGDSTYYADSVKGRCTISRDNAKNTVSLQLNSLKTEDTAVYYCNRYLSRPLRAMYYWGIGTQVTVSS	high polyreactivity
QVQLGESGGGLVQAGGSLRLSCAASGFIFRNYAIGWYRPPPGKERELVAAISRSGGSKYYADCVKGRFTISRDKAKNSVYLQMNSLKPVDTAVYYCNKDPRGRIPVPGTWIMDYWGQGTQVTVSS	high polyreactivity
QVQLVESGGGLVQAGGSLRISCAASGRTFGINAMGWYRQAPGKERELVAAISSSGSTYYADSVKGRFTISRDNAKNTVYLQMNSLKPEDTAVYYCAAVAKQWGNTYYYWGQGTQVTVSS	high polyreactivity
QVQLGESGGGLVQAGGSLRLSCAASGFTFDFYAMGWYRPAPGKEWELVAAINWSGSSTYYADSVKGRFTISRDNAKNTDYLQMNSLKPEDTAVYYCAAQVYYTLFPDVYTMYYWGQGTQETVSS	high polyreactivity
QVQLVESGGGLVQAGGSLRLSCAASGRTFVNYAMGWYRQAPGKEREFVAAITNGGRTNYADSVKGRFTISRDNAKNTVYLQMNSLKPEDTAVYYCAARYRFGGIRRYNYWGQGTQVTVSS	high polyreactivity
QVQRVESCGGLVQAGGSLRLSCAASGSIFTQYTMGWYRQEPAKERELVAAISRSGGRTYYADSVKGRFTISRDNAKNTVYLQMNSLKPEDTAVYYCATRALYWRYGYDYWGQGTQVTVSS	high polyreactivity
QVQLVESGGGLVQAGGSLRLSCASSGRIFLYNAMGWYRQAPGKERELVAVISYGGGTYYADSVKGRFTISRDNAKNTVYLQMISLKPEDSAVYYCAAEKYSSSRYWPYNYWGQGTQVTVSS	high polyreactivity
QVQLVESGGGLVQAGGSLRLSCAASGFIFWYNAMGWYRPAPGKEREFVAAISSGGSTTYADSVKGRFTISRDNAKNTVYLQMNSLKPEDTAVYYCAAGSYDYDYWGQGTQVTVSS	low polyreactivity
QVQLVESGGGLVQAGGSLRLSCAASGFTFPYYAMGWYRQAPVKERELVAAISYNGGSTYYADSVKGRFTISRDNAKNNVYLQMNSLKPEDTAVYYCNAVYYDSGVVGYYYWGQGTQVTVSS	high polyreactivity
QVQLVESGGGLVQAGGSLRLSCAASGFTFLINAMGWYRQAPGKERELVAAIRSGGSTNYADSVKGRFTISRDNAKNTVYLQMNSLKPEDTAVYYCAARRYYPYKYRYGYWGQGTQVTVSS	high polyreactivity
QVQLVESGGGLVQAGGSLRLSCAASGGTFYHNVMGWYRQAPGKERELVAAIRYSGGRTYYADSVKGRFTISRDNAKNTVYLQMNSQKPEDTAVYYCAVRSYYGPFGYWGQGTQVTVSS	high polyreactivity
QVQLVESGGGLVQAGGSLRLSCAASGSTFFRNAMGWYRQAPGKERELVASITSGGNTKYADSVKGRFTISRDNAKNTVYLQMNSLKPEDTAVYYCAAKFYHFASYSRLYNYWGQGTQVTVSS	low polyreactivity
QVQLVESGGGLVQAGGSLRLSCAASGLTIFRNAMGWYRQAPGKEREFVAGITSTDGSTYYADSVKGRFTISRDNAKNTVYLQMNSLKPEDTAVYYCAAAYRVRGRTYDSWGQGTQVTVSS	high polyreactivity
QVQLVESGGGLVQAGGSLRLSCAASGITFWDYAMGRYRQAPGKERELVAGISTRGGSTYYADSVKGRFTISRDNAKNTVYLQMNSLKPEDTAVYYCAADAQTSFGLGWGSDYDYWGQGTQVTVSS	low polyreactivity
QVQLVESGGGLVQAGGSLRLSCAPSGRTFRYYTMGWYRQAPGKERELVAAISSAGRTYYADSVKGRFTISRDNAKNTVYLQMNSLKPEDTAVYYCAAYGGDKIRMDYWGQGTQVTVSS	high polyreactivity
QVQLVESGGGLVQAGGSLRLSCAASGFTFRGYAMGWYRQAPGKERELVAVISSGGSTNYADSVKGRFTISRDNAKNTVYLQMNSLKPEDTAVYYCNAGYWFRYYGGDYYLGGLNYYWGQGTQVTVSS	low polyreactivity
QVQLVETGGGLVQAGGTLRLSCAASGRIFLTNAMGWYRQAPGKERELVATITASGGTTYYADSVKGRFTISRDNAKITVYLQMNSLKPDDTAVYYCAKRYYLRGFGRYYYCGQGTQVTVSS	high polyreactivity
QVQLVESGGGLVQAGGSLRLSCSASGYIFGRNSMGWYRTAHGKERELVAVISSRGSRTYYADSVKGRFTISRDNAKNTVYLQMNSLKPEDTAVYYCNAVLWWDWVYDFYYWGQGNQVTVSS	high polyreactivity
QVQLVESGGGLVQAGGSLRLSCAASGRSFSKYAMGWYRQAPGKERDLVAGISRSGGSTYYADSVKGRFTISRDNAKNSVYLQMNSLKPEDTAVYYGAAVRRDYDDVYTEYWGQGTQVNVSS	high polyreactivity
